The results in this text go back to article PMC9869178.

For this test, the target named is recombinant RIIα subunit of PKA, fluorescein 5-maleimide-labelled (UniProt P13861). Briefly: other fluorescence titration.
Sequence of recombinant RIIα subunit of PKA, fluorescein 5-maleimide-labelled (P13861 2-404): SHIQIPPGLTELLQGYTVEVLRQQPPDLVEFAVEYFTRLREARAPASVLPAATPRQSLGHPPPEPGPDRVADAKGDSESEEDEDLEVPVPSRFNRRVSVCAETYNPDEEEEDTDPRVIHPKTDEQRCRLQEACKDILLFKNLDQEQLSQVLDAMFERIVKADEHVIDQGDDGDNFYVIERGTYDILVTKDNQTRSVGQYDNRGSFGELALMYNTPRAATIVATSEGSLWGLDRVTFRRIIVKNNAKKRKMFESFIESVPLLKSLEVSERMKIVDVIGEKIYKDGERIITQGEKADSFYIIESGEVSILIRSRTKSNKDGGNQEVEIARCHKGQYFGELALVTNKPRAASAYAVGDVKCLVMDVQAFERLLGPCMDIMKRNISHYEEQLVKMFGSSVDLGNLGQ

Turning to “PI3Kγ mimetic peptide (PI3Kγ MP) (from UniProt P48736 126-150)”, the dissociation constant (Kd) (commonly a measure of binding affinity in units of concentration) was determined as 7.5 µM.
